# Data: US20220112288A1 (published 2022)
# B1: 75110_13P21A (antibody, IgG1, V domains shown)
# VH: QVQLQQWGAGLLKPSETLSLTCAVSGGSFSGYYWSWIRQPPGKGLEWIGEINHSGSTNCNPSLKSRVTISVDTSNNQFSLKLSSVTAADTAVYYCARVLNYFDYWGQGTLVTVSS
# VL: DIQMTQSPSSVSASVGDRVTITCRASPDIANWLAWYQQKPGKAPELLIYAASSLQSGVPSRFSGSGSGTDFTLTISSLQPEDFATYFCQQANSFPLTFGGGTKVESK
# notes: Tested as non-clonal AlivaMab Mouse Kappa hybridoma supernatant: human variable domains and human kappa, mouse Fc
# B2: 75110_13P22A (antibody, IgG1, V domains shown)
# VH: QVQLQQWGAGLLKPSETLSLTCAAYGGSFSGYYWSWIRQSPGKGLEWIGEINQSGNTNYNPSLKSRVTISADTSKNQFSLKLSSVTAADTAVYYCARVLNWFDYWGQGILVTVSS
# VL: DIQMTQSPSSVSASVGDRVTITCRASQGISDWLAWYQQKSGKAPDLLIFAASSLQSGVPSRFSGSGSGTDFTLTISSLQPEDFATYYCQQANSFPYTFGQGTKLEIK
# notes: as for B1
# B3: 75110_04F22A (antibody, V domains shown)
# VH: EVQLVESGGGLVQPGGSLRLSCAASGFTFSSYDIHWVRQATGKGLEWVSTIGTAGDTYYPGSVKGRFTISRENAKNSLYLQMNSLRAGDTAVYYCARGGYYYYGMDVWGQGTTVTVSS
# VL: EIVLTQSPGTLSLSPGERATLSCRASQSVYSSYLAWYQQKPGQAPRLLIYGASSRATGIPDRFSGSGSGTDFTLTISRLEPEDFAVYYCQQFGTSPFTFGPGTKVDIK
# notes: as for B1
# B4: 75110_01G11A (antibody, IgG1, V domains shown)
# VH: EVQLVESGGGLVQPGGSLRLSCAASGFTFSSYDMHWVRQATGKGLEWVSTIGTAGDTYYPGSVKGRFTISRENARNSLFLQMNSLRAGDTAVYYCARGGDYYYGMDVWGQGTTVTVSS
# VL: EIVLTQSPGTLSLFPGERATLSCRASQNTYSSYLAWYQQKPGQAPRLLIYGASNRATGIPDRFSGSGSGTDFTLTISRLEPEDFAVYYCQQHGTSPFTFGPGTKVDIK
# notes: as for B1
# B5: 75110_05K11A (antibody, IgG1, V domains shown)
# VH: EVQLVESGGGLVQPGGSLRLSCAASGFTFSSYDMHWVRQPTGKGLEWVSTIGTAGDTYYPASVKGRFTISRENAKNSLYLQMNSLRAGDTAVYYCARGGFYYYGMDVWGQGTTVTVSS
# VL: EIVLTQSPGTLSLSPGERVTLSCRASQSVSNTYLAWYQQKPGQAPRLLIYGASSRATGIPDRFSGSGSGTDFTLTISRLEPEDFVVYYCQQHGSSPFTFGPGTKVDIK
# notes: as for B1
# B6: 75110_01K10A (antibody, V domains shown)
# VH: EVQLVESGGALVQPGGSLRLSCAASGFTFRNYDMHWVRQATGKGLEWVSTIGTAGDTYYPGSVKGRFTISRENAKNSLYLQMNSLRAGDTAVYYCARGGDYYYGMDVWGQGTTVTVSS
# VL: EIVLTQSPDTLSLSPGERATLSCRASQSLSSVYLAWYQQKPGQAPRLLIYGASSRATGIPDRFSGTGSGTDFTLTISRLEPEDFAVYYCQQYGSSPFTFGPGTKVDIK
# notes: as for B1
# B7: 75110_01N04A (antibody, IgG1, V domains shown)
# VH: EVQLVESGGGLVQPGGSLRLSCAASGFTFSNYDMHWVRQATGKGLEWVSTIGTAGDTYYPGSVKGRFTISRENAKNSLYLQMNSLRAGDTAVYYCARGGDFYYGLDVWGQGTTVTVSS
# VL: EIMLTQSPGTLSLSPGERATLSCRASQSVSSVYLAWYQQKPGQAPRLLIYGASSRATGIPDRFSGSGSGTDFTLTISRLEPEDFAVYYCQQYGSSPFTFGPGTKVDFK
# notes: as for B1
# B8: 75110_04P06A (antibody, IgG1, V domains shown)
# VH: EVQLVESGGGLVQPGGSLRLSCAASGFTFSNYDMHWVRQATGKGLEWVSTIGTAGDTYYPGSVKGRFTISRENAKNSLYLQMNSLRAGDTAVYYCARGGDYYYGMDVWGQGTTVTVSS
# VL: EIVLTQSPDTLSLSPGERATLSCRASQSLSSVYLAWYQQKPGQAPRLLIYGASSRATGIPDRFSGSGSGTDFTLTINRLEPEDFVVYYCQQYGSSPFTFGPGTKVDIK
# notes: as for B1
# B9: 75110_01J17A (antibody, IgG1, V domains shown)
# VH: EVQLVESGGGLVQPGGSLRLSCAASGFTFSSYDMHWVRQGTGKGLEWVSTIGTADDTYYPGSVKGRFTISRENAENSLYLQMNSLRAGDTAVYYCARGGDYYYGMDVWGQGTTVTVSS
# VL: EIVLAQSPGTLSLSPGERATLSCRASQSVYISYLAWYQQKPGQAPRLLIYGASSRATGIPDRFSGSGSGTDFTLTITRLEPEDFAVYYCQQFGSSPFTFGPGTKVDFK
# notes: as for B1
# Key:
# [1] = target: T1, human CD4 on cells (SKW3 cells; human PBMCs) (human, UniProt P01730 26-458); test: FACS binning on SKW3 cells pre-incubated with supernatant; competitor RPA-T4-PE-Dazzle 594, its signal read; background 783, max binding 15000
# T1 construct: whole, on cells; SKW3 CD4 knockout cells served as the negative cell line; also called hCD4
# [2] = target: T1, human CD4 on cells (SKW3 cells; human …); test: FACS primary screen, non-clonal hybridoma supernatant, SKW3 vs SKW3 CD4 knockout cells, anti-human kappa FITC
# [3] = target: T1, human CD4 on cells (SKW3 cells; human …); test: FACS primary screen, non-clonal hybridoma supernatant, SKW3 vs SKW3 CD4 knockout cells, anti-mouse Fc A647
# [4] = target: T1, human CD4 on cells (SKW3 cells; human …); test: FACS binning on SKW3 cells pre-incubated with supernatant; competitor OKT4-A488, its signal read; background 2163, max binding 8200
# [5] = target: T1, human CD4 on cells (SKW3 cells; human …); test: FACS binning on SKW3 cells pre-incubated with supernatant; competitor OKT4a read with anti-human A647 secondary; background 5000, max binding 35000
# [6] = target: T1, human CD4 on cells (SKW3 cells; human …); test: FACS confirmation, supernatant on SKW3 WT cells, anti-human kappa FITC; background gMFI 2500
# huCD4-HIS = target: T2, huCD4-HIS (human, UniProt P01730 26-390, limits assumed); test: ELISA binning, competitor Ibalizumab; 100 ng/mL huCD4-HIS, anti-HIS HRP detection; background 45, max binding 3000000
# T2 construct: the ELISA binning is not described in the text of this stretch
# [7] = target: T1, human CD4 on cells (SKW3 cells; human …); test: FACS confirmation, supernatant on human PBMCs, anti-mouse Fc 647, CD4+ gate
# [8] = target: T1, human CD4 on cells (SKW3 cells; human …); test: FACS confirmation, supernatant on human PBMCs, anti-mouse Fc 647, CD4+ percent of viable cells
# [9] = target: T1, human CD4 on cells (SKW3 cells; human …); test: FACS confirmation, supernatant on SKW3 WT cells, anti-mouse Fc 647; background gMFI 3300
Binder,SKW3 FACS Binning RPA-T4-PE-Dazzle 594 [1],SKW3 WT vs KO anti-hKappa-FITC [2],SKW3 WT vs KO anti-mFc-647 [3],SKW3 FACS Binning OKT4 A488 [4],SKW3 FACS Binning OKT4a anti-hu A647 Secondary [5],"SKW3 WT anti-hu Kappa FITC, gMFI [6]",Ibalizumab ELISA binning signal (huCD4-HIS),"PBMCs, anti-mFc 647 CD4+ gate - RL1 Binding [7]","PBMCs, anti-mFc 647 CD4+ Percent Bound of Viable [8]","SKW3 WT anti-mFc 647, gMFI [9]"
B1,11900,2.4 fold,5.8 fold,9420,6870,7580 gMFI,678000,274000,31%,30900 gMFI
B2,19000,2.8 fold,6.4 fold,9370,6220,5910 gMFI,1.16e+06,215000,27%,18200 gMFI
B3,2290,1.8 fold,3.6 fold,9940,40200,5580 gMFI,748000,286000,32%,26900 gMFI
B4,2160,2 fold,3.4 fold,10100,30100,5000 gMFI,495000,244000,30%,19200 gMFI
B5,2190,1.8 fold,4 fold,9730,37600,6700 gMFI,1.18e+06,267000,31%,35900 gMFI
B6,1510,2.2 fold,4.6 fold,10800,30000,5940 gMFI,890000,283000,30%,24300 gMFI
B7,2240,1.9 fold,3.7 fold,9720,38100,5640 gMFI,1.04e+06,210000,33%,28000 gMFI
B8,2190,1.6 fold,3.9 fold,10100,37400,5600 gMFI,1.22e+06,292000,31%,24500 gMFI
B9,1950,2.1 fold,4.3 fold,10000,37700,5780 gMFI,755000,280000,32%,31600 gMFI
